Assay results taken from paper PMC3985669.

Key:
[1] = target: Hfq (UniProt P0A6X3); experiment: EMSA
[2] = target: Hfq (UniProt P0A6X3); experiment: footprinting

Sequence of Hfq (P0A6X3 2-102): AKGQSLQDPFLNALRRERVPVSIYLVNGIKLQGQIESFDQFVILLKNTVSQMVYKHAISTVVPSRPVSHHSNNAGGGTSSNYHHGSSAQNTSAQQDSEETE

| Sequence | binding [1] | binding [2] |
| --- | --- | --- |
| GGAUGUAAUCCAUUAGUUUUAUAUUUUACCCAUUUAGGGCUGAUUUAUUACUACACACAGCAGUGCAACAUCUGUCAGUACUUCUGGUGCUUCUAUUUUAGAGGCAGCUGUCAGGUGUGCGAUCAAUAAAAAAAGCGGGGUUUCAUCAUGUUUAAUGAAGUCCAUAGUAUUCAUGGUCAUACAUUAUUGUUGAUCACUAAAUCUUCUUUGCAGGCG [RydC + csgD mRNA215 duplex] | binds |  |
| GGAUGUAAUCCAUUAGUUUUAUAUUUUACCCAUUUAGGGCUGAUUUAUUACUACACACAGCAGUGCAACAUCUGUCAGUACUUCUGGUGCUUCUAUUUUAGAGGCAGCUGUCAGGUGUGCGAUCAAUAAAAAAAGCGGGGUUUCAUCAUGUUUAAUGAAGUCCAUAGUAUUCAUGGUCAUACAUUAUUGUUGAUCACUAAAUCUUCUUUGCAGGCG [csgD mRNA215] | binds | binds |
